Our source for the amyloid nucleation score values is the supplement of paper PMC12042874.

± gives the uncertainty stated by the source.

The nature of the data set: amyloid nucleation score (Sup35N fusion, yeast selection) (log enrichment); library NNK2; higher = more nucleation; inactive = no reads after selection. The essentials: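 The nucleation score equals the log enrichment of output over input reads from DiMSum, centred on the mode score of non-aggregating sequences. It was computed only for sequences with 100 or more input reads. The reads came from Illumina sequencing of plasmid inserts from psi-negative yeast expressing Sup35N fused to peptides of 20 random codons, induced with 100 μM copper sulfate for 24 hours and grown 7 days at 30°C without adenine and uracil.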
ASFMSISVYND: the amyloid nucleation score is -0.32 ± 0.63.
The result for ASFQLELS reads 0.438 ± 0.38.
As for ASGCLASEDKMGVYLWVV, the figure is 0.171 ± 0.65.
ASGSKDACGCATSCV yielded an amyloid nucleation score of 0.86 ± 0.13.
As for ASHLWDGRSAWHTVLSLPVT, the figure is 1.08 ± 0.18; as for ASIGY, 0.663 ± 0.22.
As for ASIYNFYVLNSPFLF, the figure is 4.73 ± 0.081; as for ASLLSGFNFKSVRHGLRDLG, 0.568 ± 0.24.
ASNAWDRLGSVPGFSRGRLR registered an amyloid nucleation score of -0.308 ± 0.48.
In turn, ASNMIV returned an amyloid nucleation score of -0.563 ± 0.33.
ASPLQPLSGYVIVRVAPSIT displayed an amyloid nucleation score of 0.266 ± 0.51.
ASQIDSLVRNRNCLNSTKIG had an amyloid nucleation score of -0.23 ± 0.44.
As for ASREWASSVVLW, the figure is 0.427 ± 0.29; as for ASVNSRSINSSGQFPPCFRK, -0.434 ± 0.61; as for ATMEGSAECVFTRDIKIFRH, “inactive”.
The result for ATMVSPTSQLAPNMYNASLT reads 5.97 ± 0.085.
As for ATYAGMFMEEMPEHYFVWGT, the figure is 0.356 ± 0.74; as for ATYNCVHRWGIFTSAYGSKC, -0.653 ± 0.56; as for AVDFKQDNHKYVNSLTDMGA, 0.034 ± 1.1.
AVFSSVLGYNA: the amyloid nucleation score is 0.257 ± 0.56.
As for AVGNMDVQEGFTTSRADRGL, the figure is 0.913 ± 0.21; as for AVKCVVEVTPWLDVKIKSFY, -0.735 ± 0.55; as for AVLLTMWYLNICTHIWVQTL, 0.139 ± 0.33.
The result for AVSHCMDDSFWGAIHKRLLY reads 3.63 ± 0.15; that for AVVFGRGPSGYTHPMFRWPC, -0.754 ± 1.1; that for AWFCREKGNGFFFM, “inactive”.
For the substance AWRAYITILGKDHAVSVSGL, the amyloid nucleation score was found to be 0.715 ± 0.43.
AWRDTHWTASCRSGSRRILS displayed an amyloid nucleation score of 4.59 ± 0.046.
The result for AYGKLSE reads -0.68 ± 0.5; that for AYGVIGWCWSYGERNWVHVR, 0.377 ± 0.49; that for AYHRWSTVLWILTYWTLRMC, 0.053 ± 1.1.
As for AYKSYGKASSDWMWGLCSHH, the figure is -0.108 ± 0.56; as for AYLTTREAVGLFNKACLASY, 0.439 ± 0.74; as for AYMSITSSLYNCTRRPTGTC, -1.35 ± 0.38.
In turn, AYRRYDWYFMLVRLLY came in with an amyloid nucleation score of 0.795 ± 0.5.
As for AYSEPAISQRFFLSGLKSII, the figure is -0.885 ± 0.34; as for AYSIHPLNKGVKVSYRLAGH, 0.306 ± 0.2.
AYTFSNSVNVCCVGVLEVIV: the amyloid nucleation score stood at 5.8 ± 0.077.
The result for AYVIRAKEC reads 0.162 ± 0.39; that for AYYCLRDLEVEYKVGYGSRL, 2.64 ± 0.21; that for AYYLFYTRGEFR, 3.2 ± 0.09.
As for AYYSVSC, the figure is 3 ± 0.11; as for CALFLFRKVLVLIT, -1.48 ± 0.55.
Turning to CAMDCSSVQGGSTITKCHTM, the amyloid nucleation score stood at 0.218 ± 1.1.
As for CARYLIEVRYKGKKIQYSM, the amyloid nucleation score was -0.837 ± 0.39.
Regarding CASAVLCCPKTSR, the amyloid nucleation score was -0.02 ± 0.34.
As for CASNQCTGP, the figure is 3.28 ± 0.065; as for CAVEVM, -0.724 ± 0.64; as for CAVGDPYCSAMFMMNLWGEK, 9.547 ± 0.052.
The result for CCCASR reads “inactive”.
As for CCICKSRHLFDWKNDEWTSI, the figure is -0.45 ± 0.63; as for CCILVSWFGIHSRCGVRCAR, 0.877 ± 0.3.
CCIRQCNMRIKADDQRRDVI registered an amyloid nucleation score of 0.109 ± 0.53.
Consider CCIRSLWLNLVLTNASGPSL, for which the amyloid nucleation score was determined as 4.39 ± 0.049.
Consider CCVYAASLLPFQLVAALLTD, for which the amyloid nucleation score is 0.91 ± 0.34.
CCYLFRSLRLVGSQIFSQSL registered an amyloid nucleation score of 0.35 ± 0.8.
For the substance CDAGFEIVLSLIN, the amyloid nucleation score is -0.828 ± 0.74.
CDFLLLKLFRNVLVWLVCSG: the amyloid nucleation score result was “inactive”.
The result for CEEFMKFFAGYQTHVLVFSR reads “inactive”.
Substance CESENKQYKNRLEIP returned an amyloid nucleation score of -2.05 ± 0.54.
Turning to CFCWLLNSNLKGNLSRGRHL, the amyloid nucleation score is -0.337 ± 1.1.
The result for CFFLTHCRDIRNVSTV reads -0.234 ± 0.37; that for CFIKVAVNWQL, 8.826 ± 0.057.
The result for CFIRHISGK reads -0.315 ± 0.63; that for CFLWHAT, 0.451 ± 0.41; that for CFMFWLCITNGIRPQCPLAS, 0.016 ± 0.65.
The result for CFNIQNFELNRVMNLFYCRY reads 6.37 ± 0.075; that for CFNVV, 0.43 ± 0.49.
Turning to CFRDTFERSFKFLERPNIMH, the amyloid nucleation score amounted to 1.26 ± 0.19.
The result for CFRRKGALSLIACRW reads -0.03 ± 0.46.
The result for CFSLRVENSVRRTTTHPCLD reads 3.87 ± 0.075; that for CFSNFVG, 0.746 ± 0.31; that for CFSSVIFAMIFVRNR, 1.73 ± 0.21.
Consider CFTKDMLSDNCVSV, for which the amyloid nucleation score was -0.845 ± 1.
Take CGCCRTRGL: the amyloid nucleation score was 2.94 ± 0.054.
In the case of CGHVTMHRWGMKNIMLVYAV, the amyloid nucleation score was -0.889 ± 1.
The result for CGPPVIWVLLCKLGMFWTVS reads -0.555 ± 0.55; that for CGRRMYKSIVQICMFRGNLN, 0.053 ± 0.79.
Take CGRSRKRCIRASRSGSLNMC: the amyloid nucleation score came to 0.293 ± 0.53.
As for CHANFNVG, the figure is 1.58 ± 0.19.
The result for CHCMLIG reads 3.46 ± 0.066; that for CHFSYKECRSAVRMLQYNGA, 2.54 ± 0.13; that for CHGNGQLK, “inactive”.
As for CHHGRYIQRVGYRLVPSAFQ, the amyloid nucleation score is 0.098 ± 1.
For CHLHIYGTRIERAYHRDFFL, the amyloid nucleation score came to 3.4 ± 0.1.
For CHRKWRYLMEASHRLSHSSW, the amyloid nucleation score entry is “inactive”.
As for CHVFTSSSTRSLWTSDIIPS, the figure is 0.218 ± 0.48; as for CIFFPRGSNFFLFQMCGLSF, 3.83 ± 0.097.
As for CIFPPYVWYGIVMVYASMYG, the figure is 6.602 ± 0.039; as for CIFYFMILFSGDIKCLNKPL, “inactive”; as for CIGYLMEIHVFSNDAKVYYL, 6.24 ± 0.038.
The result for CILDI reads -0.089 ± 1.1; that for CILEHRSEQWYCYLWPARRG, 4.24 ± 0.078.
Consider CILRPSLSFFHMPLR, for which the amyloid nucleation score amounted to 6.962 ± 0.033.
As for CILSYVQEMTMEPYLSKSLS, the figure is -0.296 ± 0.76; as for CILYKEACEIVIFPGFTVAN, -1.15 ± 1; as for CINLTLYFMQ, 9.091 ± 0.053.
With CIRTDFGA, the amyloid nucleation score was -0.086 ± 0.35.
Regarding CISTLIGTRPTAYLLLLRDI, the amyloid nucleation score entry was “inactive”.
The substance CITLMYNTPFYKITALWQPF registered an amyloid nucleation score of -0.484 ± 0.78.
The result for CIYRHAFVLFTKPLNFGRVR reads -0.166 ± 0.49; that for CKAIFFLLDPPTFIYRGSSC, 0.079 ± 0.57.
CKEYMMIFMTIIKVYLNTYL had an amyloid nucleation score of -0.698 ± 0.78.
For CKFLRVIA, the amyloid nucleation score is -1.42 ± 0.41.
